In article PMC6356897:

Experiments:
Cys36 = Cys36 (UniProt position 37, FTATWCGPCKM); assay: chemical modification (iodoacetamide alkylation) with MALDI-TOF mass spectrometry; conditions: not stated for the alkylation step (pre-reduction at 25 °C); 200 mM acetate/acetic acid (pH 3.5-5.5); 100 mM phosphate (pH 6.0-8.0); 100 mM HEPES-NaOH (pH 7.5-8.5); 100 mM glycine (above pH 8.5); carry-over of 50 mM phosphate pH 7.1 and TCEP from pre-reduction; fully reduced (TCEP), both active-site cysteines free thiols
Cys39 = Cys39 (UniProt position 40, TWCGPCKMIAP); assay: as above; conditions: not stated for the alkylation step (pre-reduction at 25 °C); 200 mM acetate/acetic acid (pH 3.5-5.5); 100 mM phosphate (pH 6.0-8.0); 100 mM HEPES-NaOH (pH 7.5-8.5); 100 mM glycine (above pH 8.5); carry-over of 40 mM phosphate pH 7.1 from pre-alkylation; Cys36 pre-alkylated (carbamidomethylated), Cys39 free thiol

Substance	pKa (Cys36)	pKa (Cys39)
Thioredoxin h1 (CrTRXh1) (Chlamydomonas reinhardtii)	6.63 ± 0.13	
Thioredoxin h1 (CrTRXh1), monoalkylated at Cys36 (CrTRXh1-CAM) (Chlamydomonas reinhardtii)		9.53 ± 0.12
